B1: WEE1 (parent)
chain: FLGSSFSPVRCGGPGDASPRGCGA
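Further: lentivirally expressed fusions sorted by FACS into six bins by GFP to DsRed ratio, PSI derived from sequencing read proportions per bin multiplied by bin number.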

Variants of B1 are the subject of this data set. Briefly: protein stability index of a GFP-peptide fusion (GPS, HEK-293T) (PSI 1-6); higher = more stable. Particulars: c terminus: a fixed tail appended.
As to FLGSSFSPVRCGHPGDASPRGCGA [G13H], the protein stability index turned out to be 1.87.
Next, FLGSSFSPVRCGVPGDASPRGCGA [G13V]: 2.05; FLGSSFPPVRCGGPGDASPRGCGA [S7P]: 1.36; FLGSSFHPVRCGGPGDASPRGCGA [S7H]: 1.81.
Take FLGSSFGPVRCGGPGDASPRGCGA [S7G]: the protein stability index came out at 2.73.
Next, FLGSSFRPVRCGGPGDASPRGCGA [S7R]: 2.38; FLGSSFCPVRCGGPGDASPRGCGA [S7C]: 2.41.
Turning to FLGSSFMPVRCGGPGDASPRGCGA [S7M], the protein stability index amounted to 2.48.
Next, FLGSSFYPVRCGGPGDASPRGCGA [S7Y]: 2.16; FLGSSFIPVRCGGPGDASPRGCGA [S7I]: 2.34.
Next, FLGSSFDPVRCGGPGDASPRGCGA [S7D]: 3.47; FLGSSFEPVRCGGPGDASPRGCGA [S7E]: 2.5; FLGSSFQPVRCGGPGDASPRGCGA [S7Q]: 1.93.
Next, FLGSSFKPVRCGGPGDASPRGCGA [S7K]: 2.47; FLGSSFVPVRCGGPGDASPRGCGA [S7V]: 1.03; FLGSSFLPVRCGGPGDASPRGCGA [S7L]: 1.48.
FLGSSFTPVRCGGPGDASPRGCGA [S7T]: the protein stability index turned out to be 2.9.
Next, FLGSSFFPVRCGGPGDASPRGCGA [S7F]: 1.12.
Next, FLGSSFNPVRCGGPGDASPRGCGA [S7N]: 2.22; FLGSSFSPVRCGGFGDASPRGCGA [P14F]: 3.56.
With FLGSSFSPVRCGGRGDASPRGCGA [P14R], the protein stability index worked out at 2.35.
On to FLGSSFSPVRCGGKGDASPRGCGA [P14K], for which the protein stability index was 2.81.
Next, FLGSSFSPVRCGGCGDASPRGCGA [P14C]: 2.18; FLGSSFSPVRCGGLGDASPRGCGA [P14L]: 1.59; FLGSSFSPVRCGGGGDASPRGCGA [P14G]: 2.04.
Next, FLGSSFSPVRCGGIGDASPRGCGA [P14I]: 2.29; FLGSSFSPVRCGGVGDASPRGCGA [P14V]: 1.35.
Next, FLGSSFSPVRCGGAGDASPRGCGA [P14A]: 1.45; FLGSSFSPVRCGGEGDASPRGCGA [P14E]: 2.22; FLGSSFSPVRCGGWGDASPRGCGA [P14W]: 1.94.
As for FLGSSFSPVRCGGQGDASPRGCGA [P14Q], the protein stability index came out at 2.42.
Next, FLGSSFSPVRCGGDGDASPRGCGA [P14D]: 1.9.
As for FLGSSFSPVRCGGSGDASPRGCGA [P14S], the protein stability index was 2.24.
Next, FLGSSFSPVRCGGMGDASPRGCGA [P14M]: 1.17; FLGSSFSPVRCGGYGDASPRGCGA [P14Y]: 2.42; FLGSSFSPVRCGGHGDASPRGCGA [P14H]: 1.86.
Next, FLGSSFSPVRCGGTGDASPRGCGA [P14T]: 1.15.
Next, FLGSSFSPVRCGGNGDASPRGCGA [P14N]: 1.85; FLGSSFSPVSCGGPGDASPRGCGA [R10S]: 1.8.
Regarding FLGSSFSPVECGGPGDASPRGCGA [R10E], the protein stability index worked out at 3.27.
Next, FLGSSFSPVQCGGPGDASPRGCGA [R10Q]: 1.84.
Next, FLGSSFSPVVCGGPGDASPRGCGA [R10V]: 2; FLGSSFSPVDCGGPGDASPRGCGA [R10D]: 2.68; FLGSSFSPVYCGGPGDASPRGCGA [R10Y]: 1.07.
Next, FLGSSFSPVPCGGPGDASPRGCGA [R10P]: 2.04; FLGSSFSPVICGGPGDASPRGCGA [R10I]: 2.25; FLGSSFSPVWCGGPGDASPRGCGA [R10W]: 4.78.
Take FLGSSFSPVKCGGPGDASPRGCGA [R10K]: the protein stability index was found to be 2.68.
Consider FLGSSFSPVGCGGPGDASPRGCGA [R10G], for which the protein stability index stood at 1.42.
With FLGSSFSPVMCGGPGDASPRGCGA [R10M], the protein stability index is 1.64.
Next, FLGSSFSPVACGGPGDASPRGCGA [R10A]: 1.83; FLGSSFSPVLCGGPGDASPRGCGA [R10L]: 2.52.
Next, FLGSSFSPVHCGGPGDASPRGCGA [R10H]: 2.63; FLGSSFSPVFCGGPGDASPRGCGA [R10F]: 2.95.
Next, FLGSSFSPVCCGGPGDASPRGCGA [R10C]: 1.73; FLGSSFSPVNCGGPGDASPRGCGA [R10N]: 2.33.
On to FLGSSFSPVTCGGPGDASPRGCGA [R10T], for which the protein stability index came to 2.25.
Take FLGSSFSEVRCGGPGDASPRGCGA [P8E]: the protein stability index was determined as 2.23.
Next, FLGSSFSWVRCGGPGDASPRGCGA [P8W]: 2.83; FLGSSFSDVRCGGPGDASPRGCGA [P8D]: 1.97.
Next, FLGSSFSKVRCGGPGDASPRGCGA [P8K]: 1.66; FLGSSFSRVRCGGPGDASPRGCGA [P8R]: 1.48; FLGSSFSNVRCGGPGDASPRGCGA [P8N]: 2.05.
Next, FLGSSFSAVRCGGPGDASPRGCGA [P8A]: 1.38.
As to FLGSSFSGVRCGGPGDASPRGCGA [P8G], the protein stability index is 1.81.
Next, FLGSSFSFVRCGGPGDASPRGCGA [P8F]: 2.49; FLGSSFSSVRCGGPGDASPRGCGA [P8S]: 2.51.
Next, FLGSSFSIVRCGGPGDASPRGCGA [P8I]: 1.23; FLGSSFSHVRCGGPGDASPRGCGA [P8H]: 1.71.
Next, FLGSSFSYVRCGGPGDASPRGCGA [P8Y]: 1.78; FLGSSFSVVRCGGPGDASPRGCGA [P8V]: 1.97; FLGSSFSLVRCGGPGDASPRGCGA [P8L]: 2.15.
As to FLGSSFSTVRCGGPGDASPRGCGA [P8T], the protein stability index came out at 1.43.
As for FLGSSFSMVRCGGPGDASPRGCGA [P8M], the protein stability index is 1.85.
Next, FLGSSFSQVRCGGPGDASPRGCGA [P8Q]: 1.64; FLGSSFSPVRRGGPGDASPRGCGA [C11R]: 2.69.
Next, FLGSSFSPVRAGGPGDASPRGCGA [C11A]: 2.78; FLGSSFSPVRSGGPGDASPRGCGA [C11S]: 2.62.
Next, FLGSSFSPVRGGGPGDASPRGCGA [C11G]: 2.34.
As for FLGSSFSPVRMGGPGDASPRGCGA [C11M], the protein stability index was 2.4.
Next, FLGSSFSPVRDGGPGDASPRGCGA [C11D]: 3.3; FLGSSFSPVRVGGPGDASPRGCGA [C11V]: 1.95.
FLGSSFSPVRKGGPGDASPRGCGA [C11K]: the protein stability index worked out at 1.91.
Next, FLGSSFSPVREGGPGDASPRGCGA [C11E]: 2.39.
Next, FLGSSFSPVRIGGPGDASPRGCGA [C11I]: 2.12; FLGSSFSPVRLGGPGDASPRGCGA [C11L]: 2.22; FLGSSFSPVRWGGPGDASPRGCGA [C11W]: 1.46.
Next, FLGSSFSPVRHGGPGDASPRGCGA [C11H]: 2.1; FLGSSFSPVRFGGPGDASPRGCGA [C11F]: 2.19.
On to FLGSSFSPVRQGGPGDASPRGCGA [C11Q], for which the protein stability index was found to be 2.48.
Take FLGSSFSPVRPGGPGDASPRGCGA [C11P]: the protein stability index is 2.44.
Next, FLGSSFSPVRTGGPGDASPRGCGA [C11T]: 2.27; FLGSSFSPVRNGGPGDASPRGCGA [C11N]: 2.53.
Next, FLGSSFSPVRYGGPGDASPRGCGA [C11Y]: 2.01.

(Values after the supplement of paper PMC10567573.)
